Measured values reported in patent US7183387 (Genentech, dated 2007).
Substitutions are numbered along the chain they refer to. Names may count otherwise.

T1: human FcγRIIA-H131 α subunit extracellular domain-His6-GST fusion protein (human, UniProt P12318 34-217)
T1 construct: also called FcγRIIA-His131; not shown: glutathione S-transferase (GST)
T1 sequence: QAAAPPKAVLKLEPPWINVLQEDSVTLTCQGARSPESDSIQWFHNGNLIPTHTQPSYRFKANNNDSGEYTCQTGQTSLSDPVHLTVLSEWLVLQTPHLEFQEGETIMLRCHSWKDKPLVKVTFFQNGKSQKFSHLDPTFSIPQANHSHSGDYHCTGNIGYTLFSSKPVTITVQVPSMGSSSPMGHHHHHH

T2: human FcγRIIB α subunit extracellular domain-6His-GST fusion (human, UniProt P31994 43-217)
T2 construct: not shown: glutathione S-transferase (GST)
T2 sequence: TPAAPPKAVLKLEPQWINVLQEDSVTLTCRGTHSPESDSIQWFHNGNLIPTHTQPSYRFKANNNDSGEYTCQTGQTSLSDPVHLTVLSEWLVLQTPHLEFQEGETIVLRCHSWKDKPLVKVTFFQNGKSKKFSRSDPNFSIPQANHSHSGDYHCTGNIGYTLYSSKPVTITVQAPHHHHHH

T3: human FcγRIIA-R131 α subunit extracellular domain-6His-GST fusion (human, UniProt P12318 34-217)
T3 construct: also called FcγRIIA-Arg131; not shown: glutathione S-transferase (GST)
T3 sequence: T1 sequence with H134R

T4: human FcγRIIA-R131 α subunit extracellular domain-His6-GST fusion (human, UniProt P12318 34-217)
T4 construct: ECD-6His-GST fusion made in 293 cells; also called FcγRIIA-Arg131; not shown: glutathione S transferase (GST)
T4 sequence: T1 sequence with H134R

T5: human FcγRIIA-H131 α subunit extracellular domain-His6-GST fusion (human, UniProt P12318 34-217)
T5 construct: ECD-6His-GST fusion made in 293 cells; also called FcγRIIA-His131; not shown: glutathione S transferase (GST)
T5 sequence: T1 sequence

B1: anti-IgE E27 IgG1 variant Asp270Ala (antibody)
heavy: not shown
light: DIQLTQSPSSLSASVGDRVTITCRASKPVDGEGDSYLNWYQQKPGKAPKLLIYAASYLESGVPSRFSGSGSGTDFTLTISSLQPEDFATYYCQQSHEDPYTFGQGTKVEIKRTVAAPSVFIFPPSDEQLKSGTASVVCLLNNFYPREAKVQWKVDNALQSGNSQESVTEQDSKDSTYSLSSTLTLSKADYEKHKVYACEVTHQGLSSPVTKSFNRGEC
notes: also called D270(283)A; D283A
B2: E27 IgG1 variant S267(280)A/E258(271)A (antibody)
heavy: not shown
light: B1 light
B3: E27 IgG1 variant T256(269)A/D280(295)A/R292(309)A/S298(317)A/T307(326)A (antibody)
heavy: EVQLVESGGGLVQPGGSLRLSCAVSGYSITSGYSWNWIRQAPGKGLEWVASIKYSGETKYNPSVKGRITISRDDSKNTFYLQMNSLRAEDTAVYYCARGSHYFGHWHFAVWGQGTLVTVSSASTKGPSVFPLAPSSKSTSGGTAALGCLVKDYFPEPVTVSWNSGALTSGVHTFPAVLQSSGLYSLSSVVTVPSSSLGTQTYICNVNHKPSNTKVDKKVEPKSCDKTHTCPPCPAPELLGGPSVFLFPPKPKDTLMISRAPEVTCVVVDVSHEDPEVKFNWYVAGVEVHNAKTKPAEEQYNATYRVVSVLAVLHQDWLNGKEYKCKVSNKALPAPIEKTISKAKGQPREPQVYTLPPSREEMTKNQVSLTCLVKGFYPSDIAVEWESNGQPENNYKTTPPVLDSDGSFFLYSKLTVDKSRWQQGNVFSCSVMHEALHNHYTQKSLSLSPGK
light: B1 light
B4: E27 IgG1 variant S267(280)A/E258(271)A/D280(295)A/R255(268)A (antibody)
heavy: B3 heavy with R259A, A260T, E262A, S271A, A296R, A302S, A311T
light: B1 light
notes: also called IG2 264
B5: E27 IgG1 variant T256(269)A/D280(295)A/S298(317)A/T307(326)A (antibody)
heavy: B3 heavy with A296R
light: B1 light
notes: also called IG2 1051
B6: E27 IgG1 variant S267(280)A/E293(310)A (antibody)
heavy: not shown
light: B1 light
notes: also called IG2 251
B7: E27 IgG1 variant S267(280)A/H268(281)A (antibody)
heavy: not shown
light: B1 light
notes: also called IG2 96
B8: E27 IgG1 variant S298(317)A/K334(353)A (antibody)
heavy: not shown
light: B1 light
B9: E27 IgG1 variant S298(317)A/E333(352)A (antibody)
heavy: not shown
light: B1 light
B10: E27 IgG1 variant S298(317)A/E333(352)A/K334(353)A (antibody)
heavy: B3 heavy with A260T, A284D, A296R, A311T, E337A, K338A
light: B1 light
notes: also called IG2 110
B11: E27 IgG1 variant S267(280)A/E272(285)A (antibody)
heavy: not shown
light: B1 light
notes: also called IG2 250
B12: E27 IgG1 variant T256(269)A/S298(317)A (antibody)
heavy: not shown
light: B1 light
notes: also called IG2 1059
B13: E27 IgG1 variant S267(280)A/R255(268)A (antibody)
heavy: not shown
light: B1 light
notes: also called IG2 247
B14: anti-IgE E27 IgG1 variant S267(280)A/H268(281)A (antibody)
heavy: not shown
light: B1 light
notes: Fc variant of E27; also called IG2 96; Ser267Ala/His268Ala
B15: anti-IgE E27 IgG1 variant H268(281)A (antibody)
heavy: not shown
light: B1 light
notes: Fc variant of E27; also called IG2 16; G16
B16: anti-IgE E27 IgG1 variant N315(334)A (antibody)
heavy: not shown
light: B1 light
notes: Fc variant of E27; also called IG2 45; Asn315Ala
B17: anti-IgE E27 IgG1 variant S267(280)G (antibody)
heavy: not shown
light: B1 light
notes: Fc variant of E27; also called IG2 189; Ser267Gly
B18: anti-IgE E27 IgG1 variant K317(336)A (antibody)
heavy: not shown
light: B1 light
notes: Fc variant of E27; also called IG2 46; Lys317Ala
B19: anti-IgE E27 IgG1 variant K320(339)A (antibody)
heavy: not shown
light: B1 light
notes: Fc variant of E27; also called IG2 48; Lys320Ala

biological target: T1, human FcγRIIA-H131 α subunit …; experiment: ELISA, IgG:IgE hexamer on coated FcγRIIA-H131-GST

Binder	ratio of binding of the variant to that of native IgG1
B1	0.45 ratio (variant/native IgG1)

biological target: T2, human FcγRIIB α subunit extracellular …; experiment: ELISA, IgG:IgE hexamers on receptor-GST

Binder	ratio to native IgG1
B2	2.01
B3	0.08
B4	2.03
B5	0.3
B6	1.85
B7	1.56
B8	0.19
B9	0.16
B10	0.15
B11	1.82
B12	0.22
B13	1.72

biological target: T3, human FcγRIIA-R131 α subunit …; experiment: ELISA, IgG:IgE hexamers on receptor-GST

Binder	ratio to native IgG1
B2	1.62
B3	0.11
B4	1.48
B5	0.47
B6	1.67
B7	1.41
B8	0.41
B9	0.34
B10	0.34
B11	1.51
B12	0.44
B13	1.6

biological target: T6, human FcγRIIIA-F158 α subunit extracellular domain-6His-GST fusion (human, UniProt P08637 17-208); experiment: ELISA, IgG:IgE hexamers on receptor-GST
T6 construct: also called FcγRIIIA-Phe158; not shown: glutathione S-transferase (GST)
T6 sequence (P08637 other isoform, or with tags, fused parts or gaps, form in doubt): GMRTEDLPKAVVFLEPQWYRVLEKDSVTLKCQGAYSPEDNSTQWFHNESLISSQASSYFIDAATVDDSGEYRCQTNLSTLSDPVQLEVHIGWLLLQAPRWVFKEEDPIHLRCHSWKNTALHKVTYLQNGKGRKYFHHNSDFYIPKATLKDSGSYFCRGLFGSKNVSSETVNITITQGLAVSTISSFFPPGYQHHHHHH

Binder	ratio to native IgG1
B2	1.04
B3	0.9
B4	0.89
B5	1.21
B6	0.92
B7	0.96
B8	1.62
B9	1.53
B10	1.51
B11	0.95
B12	1.41
B13	0.88

biological target: T1, human FcγRIIA-H131 α subunit …; experiment: ELISA; binding ratio on FcγRIIA-H131 divided by that on FcγRIIA-R131

Binder	H131/R131
B1	16.6 ratio (H131 value/R131 value)

biological target: T4, human FcγRIIA-R131 α subunit …; experiment: ELISA, IgG complex, receptor coated

Binder	ratio of binding, variant/native IgG1 (mean) [ratio]
B14	1.54
B15	1.22
B16	1.15
B17	1.21
B18	1.13
B19	1.12

biological target: T5, human FcγRIIA-H131 α subunit …; experiment: ELISA, IgG complex, receptor coated

Binder	ratio of binding, variant/native IgG1 (mean) [ratio]
B14	1.07
B15	1.09
B16	1.11
B17	0.59
B18	1.04
B19	1.16

biological target: T7, human FcγRIIIA-F158 α subunit extracellular domain-His6-GST fusion (human, UniProt P08637 17-208); experiment: ELISA, IgG complex, receptor coated
T7 construct: ECD-6His-GST fusion made in 293 cells; also called FcγRIIIA-Phe158; not shown: glutathione S transferase (GST)
T7 sequence (P08637 other isoform, or with tags, fused parts or gaps, form in doubt): as above

Binder	ratio of binding, variant/native IgG1 (mean) [ratio]
B14	0.84
B15	0.52
B16	1.07
B17	0.09
B18	1.1
B19	0.87
